# Patent US20090214537A1 (Novartis, published 2009)
# T1: human C4b-binding protein (C4BP) purified from citrated human plasma (human, UniProt P04003 49-597; P20851 18-252)
# T1 construct: also called human plasma C4BP; human complement regulator C4 bp
# T1 sequence 1: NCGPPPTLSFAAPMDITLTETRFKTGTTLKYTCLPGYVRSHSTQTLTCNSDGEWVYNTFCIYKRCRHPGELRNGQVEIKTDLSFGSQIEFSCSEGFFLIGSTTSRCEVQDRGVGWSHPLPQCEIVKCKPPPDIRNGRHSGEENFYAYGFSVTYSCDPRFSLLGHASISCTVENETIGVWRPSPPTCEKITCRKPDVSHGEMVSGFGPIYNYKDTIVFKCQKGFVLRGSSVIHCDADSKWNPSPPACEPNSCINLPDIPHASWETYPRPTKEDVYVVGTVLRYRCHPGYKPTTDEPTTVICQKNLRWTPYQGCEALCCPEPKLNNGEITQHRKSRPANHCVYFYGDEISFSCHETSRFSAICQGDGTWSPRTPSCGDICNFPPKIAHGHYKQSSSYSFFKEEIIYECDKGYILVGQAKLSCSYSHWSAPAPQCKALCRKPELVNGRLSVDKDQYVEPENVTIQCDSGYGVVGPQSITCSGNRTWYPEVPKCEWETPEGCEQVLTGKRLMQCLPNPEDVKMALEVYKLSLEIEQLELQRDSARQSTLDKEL
# T1 sequence 2: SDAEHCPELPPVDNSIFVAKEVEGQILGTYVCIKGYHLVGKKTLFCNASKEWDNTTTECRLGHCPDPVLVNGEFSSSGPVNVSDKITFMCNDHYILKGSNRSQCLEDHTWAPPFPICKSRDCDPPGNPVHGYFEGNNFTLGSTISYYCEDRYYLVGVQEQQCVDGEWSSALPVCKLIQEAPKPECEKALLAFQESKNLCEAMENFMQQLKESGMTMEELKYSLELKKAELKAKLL
# B1: BibA-Nt-His (GBS3-Nt-His), coiled-coil domain of BibA, aa 34-394 (other)
# chain: MHADTSSGISASIPHKKQVNLGAVTLKNLISKYRGNDKAIAILLSRVNDFNRASQDTLPQLINSTEAEIRNILYQGQIGKQNKPSVTTHAKVSDQELGKQSRRSQDIIKSLGFLSSDQKDILVKSISSSKDSQLILKFVTQATQLNNAESTKAKQMAQNDVALIKNISPEVLEEYKEKIQRASTKSQVDEFVAEAKKVVNSNKETLVNQANGKKQEIAKLENLSNDEMLRYNTAIDNVVKQYNEGKLNITAAMNALNSIKQAAQEVAQKNLQKQYAKKIERISSKGLALSKKAKEIYEKHKSILPTPGYYADSVGTYLNRFRDKQTFGNRSVWTGQSGLDEAKKMLDEVKKLLKELQDLTRGLEHHHHHH
# notes: His-tagged fragment expressed from pET21b(+); also called BibA N-terminal construct; N-terminal portion of BibA
# B2: BibA-His (GBS3-His), recombinant entire form of BibA from S. agalactiae 2603 V/R with C-terminal His-tag (other)
# chain: MHADTSSGISASIPHKKQVNLGAVTLKNLISKYRGNDKAIAILLSRVNDFNRASQDTLPQLINSTEAEIRNILYQGQIGKQNKPSVTTHAKVSDQELGKQSRRSQDIIKSLGFLSSDQKDILVKSISSSKDSQLILKFVTQATQLNNAESTKAKQMAQNDVALIKNISPEVLEEYKEKIQRASTKSQVDEFVAEAKKVVNSNKETLVNQANGKKQEIAKLENLSNDEMLRYNTAIDNVVKQYNEGKLNITAAMNALNSIKQAAQEVAQKNLQKQYAKKIERISSKGLALSKKAKEIYEKHKSILPTPGYYADSVGTYLNRFRDKQTFGNRSVWTGQSGLDEAKKMLDEVKKLLKELQDLTRGTKEDKKPDVKPEAKPEAKPDVKPEAKPDVKPEAKPDVKPEAKPDVKPEAKPDVKPEAKPDVKPKAKPDVKPEAKPDVKPDVKPDVKPEAKPEDKPDVKPDVKPEAKPDVKPEAKPEAKPEAKPEAKPEAKPEAKPDVKPEAKPDVKPEAKPEAKPEAKSEAKPEAKLEAKPEAKPATKKSVNTSGNLAAKKAIENKKYSKKLPSTGEAASPLLAIVSLIVMLSAGLITLEHHHHHH
# notes: His-tagged protein expressed from pET21b(+) in E. coli; also called recombinant BibA; BibA protein
# B3: BibA-Ct-His (GBS3-Ct-His), proline-rich domain of BibA, aa 389-622 (other)
# chain: MQDLTRGTKEDKKPDVKPEAKPEAKPDVKPEAKPDVKPEAKPDVKPEAKPDVKPEAKPDVKPEAKPDVKPKAKPDVKPEAKPDVKPDVKPDVKPEAKPEDKPDVKPDVKPEAKPDVKPEAKPEAKPEAKPEAKPEAKPEAKPDVKPEAKPDVKPEAKPEAKPEAKSEAKPEAKLEAKPEAKPATKKSVNTSGNLAAKKAIENKKYSKKLPSTGEAASPLLAIVSLIVMLSAGLITLEHHHHHH
# notes: His-tagged fragment; also called BibA C-terminal construct; C-terminal portion of BibA
# Legend:
# [1] = biological target: putative BibA receptor on human epithelial cells (ME180, A549, Caco2, 16HBE); experiment: flow cytometry, recombinant BibA on ME180 cells, anti-BibA serum and PE-conjugated secondary antibody
# [2] = biological target: putative BibA receptor on human epithelial cells (ME180, A549, Caco2, 16HBE); experiment: flow cytometry saturation curve on ME180 cells, BibA concentration at 50% saturation (FIG. 22B)
# [3] = biological target: T1, human C4b-binding protein (C4BP) …; experiment: overlay blot of the SDS-PAGE separated constructs with C4bp (FIG. 21C)
# [4] = biological target: T2, Factor H (alternative complement pathway regulator) (UniProt P08603 19-1231); experiment: overlay blot (format not detailed)
# T2 construct: also called FH
# T2 sequence (P08603 19-1231): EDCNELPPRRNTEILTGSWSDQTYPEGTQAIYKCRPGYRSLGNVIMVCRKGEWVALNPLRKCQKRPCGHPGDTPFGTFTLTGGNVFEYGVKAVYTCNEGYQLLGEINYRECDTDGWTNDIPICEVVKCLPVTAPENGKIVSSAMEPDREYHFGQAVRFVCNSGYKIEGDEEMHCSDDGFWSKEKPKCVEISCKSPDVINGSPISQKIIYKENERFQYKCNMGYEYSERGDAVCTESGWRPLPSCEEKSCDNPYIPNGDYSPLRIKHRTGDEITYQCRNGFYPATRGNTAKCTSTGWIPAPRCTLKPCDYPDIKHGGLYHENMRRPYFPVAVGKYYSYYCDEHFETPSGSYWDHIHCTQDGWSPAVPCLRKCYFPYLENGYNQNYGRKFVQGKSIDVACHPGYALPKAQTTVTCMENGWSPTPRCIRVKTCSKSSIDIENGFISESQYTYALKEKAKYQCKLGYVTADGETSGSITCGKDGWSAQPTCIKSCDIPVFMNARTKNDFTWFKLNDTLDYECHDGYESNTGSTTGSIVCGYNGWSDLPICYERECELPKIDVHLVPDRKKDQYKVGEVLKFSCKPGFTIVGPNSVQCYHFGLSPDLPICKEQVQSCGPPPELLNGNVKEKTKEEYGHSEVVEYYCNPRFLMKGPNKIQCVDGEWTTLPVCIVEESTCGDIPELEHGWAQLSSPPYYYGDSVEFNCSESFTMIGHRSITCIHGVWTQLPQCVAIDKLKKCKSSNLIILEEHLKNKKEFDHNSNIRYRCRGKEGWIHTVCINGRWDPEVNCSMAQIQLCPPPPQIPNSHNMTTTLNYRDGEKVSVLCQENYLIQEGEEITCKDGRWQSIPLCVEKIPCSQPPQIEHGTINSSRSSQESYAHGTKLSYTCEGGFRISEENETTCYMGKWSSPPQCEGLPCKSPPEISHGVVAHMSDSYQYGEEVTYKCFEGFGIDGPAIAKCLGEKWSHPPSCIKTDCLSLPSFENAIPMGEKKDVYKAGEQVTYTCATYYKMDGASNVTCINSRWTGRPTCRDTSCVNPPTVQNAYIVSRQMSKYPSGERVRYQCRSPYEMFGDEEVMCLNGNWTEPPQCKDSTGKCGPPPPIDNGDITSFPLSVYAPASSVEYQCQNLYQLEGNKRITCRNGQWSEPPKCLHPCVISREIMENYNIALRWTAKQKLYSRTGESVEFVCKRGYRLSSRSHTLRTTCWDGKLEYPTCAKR
molecule,measurement,setting,value
"BibA-His (GBS3-His), recombinant entire form of BibA from S. agalactiae 2603 V/R with C-terminal His-tag",BibA concentration at which binding reached a plateau,[1],5 µg/mL
same,Kd,[2],40 nM
B1,binding result,[3],binds
B2,binding result,[4],no binding
B3,binding result,[3],no binding (tested: 5 µg/ml)
